Data on seven molecules can be found in patent US20040058870A1 (Bayer, published 2004).

Where two headings read alike, the source gives them in different places. Ends that are not written are not given here.

Test in all cases: cell-based or functional assay
Assay [1] deals with T1, VPAC2 receptor (human, UniProt P41587 24-438).
T1 sequence (looked up): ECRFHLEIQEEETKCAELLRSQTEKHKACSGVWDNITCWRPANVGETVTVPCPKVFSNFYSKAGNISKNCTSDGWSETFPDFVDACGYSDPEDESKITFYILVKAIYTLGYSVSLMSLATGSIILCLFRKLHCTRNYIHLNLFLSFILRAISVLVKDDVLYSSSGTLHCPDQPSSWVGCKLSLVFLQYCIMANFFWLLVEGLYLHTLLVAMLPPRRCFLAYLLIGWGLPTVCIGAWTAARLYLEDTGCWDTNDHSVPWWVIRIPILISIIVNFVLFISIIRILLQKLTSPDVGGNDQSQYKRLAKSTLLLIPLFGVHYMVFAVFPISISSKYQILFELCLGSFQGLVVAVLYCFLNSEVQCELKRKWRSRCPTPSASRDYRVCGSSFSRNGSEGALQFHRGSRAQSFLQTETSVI

Another assay has as its target T2, VPAC1 receptor (UniProt P32241 31-457, limits assumed).
T2 sequence (looked up): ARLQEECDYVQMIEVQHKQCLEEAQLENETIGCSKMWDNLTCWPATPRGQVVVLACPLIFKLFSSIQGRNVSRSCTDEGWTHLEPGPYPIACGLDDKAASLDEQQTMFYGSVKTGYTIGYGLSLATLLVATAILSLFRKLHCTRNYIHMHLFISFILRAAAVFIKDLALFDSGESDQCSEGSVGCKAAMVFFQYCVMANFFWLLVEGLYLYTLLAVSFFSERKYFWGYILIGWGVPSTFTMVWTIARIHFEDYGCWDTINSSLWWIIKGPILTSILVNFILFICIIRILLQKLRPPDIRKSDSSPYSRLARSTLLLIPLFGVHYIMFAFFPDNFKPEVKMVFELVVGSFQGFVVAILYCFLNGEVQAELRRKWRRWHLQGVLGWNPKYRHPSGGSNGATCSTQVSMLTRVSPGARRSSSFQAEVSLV

The target of assay [2] is T1, VPAC2 receptor. The source holds these as a separate data set.
Assay [3] deals with T1, VPAC2 receptor. This is another data set of the same source.

Take “PACAP-27 (from UniProt P18509 132-158) (peptide)”: the EC50 (nM), cAMP SPA with VPAC2 receptor [1] worked out at 0.09 nM.

B1: P12 (peptide)
peptide: HSDAVFTDQYTRLRKQVAAKKYLQSIKQKRYC
modifications: ends and bridges not checked
For B1, in the assay with VPAC1 receptor, the “EC50 (nM), cAMP SPA” value is above 1000 nM.

B2: P12 plus 43 kD PEG (peptide)
peptide: HSDAVFTDQYTRLRKQVAAKKYLQSIKQKRYC
modifications: 43 kD PEG on the C-terminal Cys via maleimide (thioether) linkage
For the molecule B2, the “EC50 (nM), cAMP SPA” value with VPAC1 receptor is above 1000 nM.

B3: P12 plus 22 kD PEG (peptide)
peptide: HSDAVFTDQYTRLRKQVAAKKYLQSIKQKRYC
modifications: 22 kD PEG on the C-terminal Cys via maleimide (thioether) linkage
For the molecule B3, the “EC50 (nM), cAMP SPA” value with VPAC1 receptor is above 1000 nM.

B4: P7 (peptide)
peptide: HTEAVFTDQYTRLRKQVAAKKYLQSIKQKRY
For B4, the results for the “EC50 (nM), cAMP SPA” value in the assay with VPAC2 receptor [2] and in the assay with VPAC1 receptor were 7.81 nM and above 1000 nM, respectively. Moreover, the “maximal level of receptor activation relative to PACAP-27, cAMP SPA” value with VPAC2 receptor [3] was found to be 100%.

B5: P5 (peptide)
peptide: HSDAVFTDQYTRLRKQVAAKKYLQSIKQKRY
Consider B5, for which the “EC50 (nM), cAMP SPA” value in the assay with VPAC1 receptor worked out at 232 nM.

B6: P8 (peptide)
peptide: Ac-HTDAVFTDQYTRLRKQVAAKKYLQSIKQKRY
modifications: ends and bridges not checked
Consider B6, for which the “EC50 (nM), cAMP SPA” value with VPAC2 receptor [2] was found to be 0.19 nM; with VPAC1 receptor, 130 nM. Further, in the assay with VPAC2 receptor [3], the “maximal level of receptor activation relative to PACAP-27, cAMP SPA” value came to 100%.
